Biological target: T1, Activin A (endogenous, mouse, released after LPS) (mouse) (UniProt Q04998)
T1 sequence (looked up): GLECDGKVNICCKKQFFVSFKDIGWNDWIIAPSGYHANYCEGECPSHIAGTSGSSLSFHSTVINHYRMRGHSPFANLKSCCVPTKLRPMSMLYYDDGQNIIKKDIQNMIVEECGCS
Assay: cell-based or functional assay

IL-6 peak concentration in mice given 1 µg rhfollistatin-288 before LPS, against LPS alone: 2 fold | IL-6 release in mice given 0.5 µg follistatin before LPS (LPS alone ≈20000 pg/ml): 30000 pg/mL | IL-6 release in mice given 0.5 µg follistatin before LPS, against LPS alone: 50% | IL-6 release in mice given 1 µg follistatin before LPS (LPS alone ≈20000 pg/ml): 50000 pg/mL | IL-6 release in mice given 1 µg follistatin before LPS, against LPS alone: 250% | IL-6 release in mice given 2 µg follistatin before LPS (LPS alone ≈20000 pg/ml): 20000 pg/mL | TNFα release in plasma of mice given 1 µg rhfollistatin-288 30 min before LPS (% suppression): 50
Substance: Recombinant human follistatin-288 (from UniProt P19883 30-317)

— patent publication US20070248609A1
